In US20180072811A1 (GENERAL HOSPITAL, published 2018):

Target: T1, chondroitin sulfate proteoglycan 4 (CSPG4), human (human, UniProt Q6UVK1 30-2322)
T1 construct: whole, on cells; Cell surface proteoglycan; also called MCSP; NG2
Assay: reactivity of single scFv clones with CSPG4+ SK-MEL-28 melanoma cells and CSPG4- LG2 B lymphoid cells

T1 sequence (Q6UVK1 30-2322): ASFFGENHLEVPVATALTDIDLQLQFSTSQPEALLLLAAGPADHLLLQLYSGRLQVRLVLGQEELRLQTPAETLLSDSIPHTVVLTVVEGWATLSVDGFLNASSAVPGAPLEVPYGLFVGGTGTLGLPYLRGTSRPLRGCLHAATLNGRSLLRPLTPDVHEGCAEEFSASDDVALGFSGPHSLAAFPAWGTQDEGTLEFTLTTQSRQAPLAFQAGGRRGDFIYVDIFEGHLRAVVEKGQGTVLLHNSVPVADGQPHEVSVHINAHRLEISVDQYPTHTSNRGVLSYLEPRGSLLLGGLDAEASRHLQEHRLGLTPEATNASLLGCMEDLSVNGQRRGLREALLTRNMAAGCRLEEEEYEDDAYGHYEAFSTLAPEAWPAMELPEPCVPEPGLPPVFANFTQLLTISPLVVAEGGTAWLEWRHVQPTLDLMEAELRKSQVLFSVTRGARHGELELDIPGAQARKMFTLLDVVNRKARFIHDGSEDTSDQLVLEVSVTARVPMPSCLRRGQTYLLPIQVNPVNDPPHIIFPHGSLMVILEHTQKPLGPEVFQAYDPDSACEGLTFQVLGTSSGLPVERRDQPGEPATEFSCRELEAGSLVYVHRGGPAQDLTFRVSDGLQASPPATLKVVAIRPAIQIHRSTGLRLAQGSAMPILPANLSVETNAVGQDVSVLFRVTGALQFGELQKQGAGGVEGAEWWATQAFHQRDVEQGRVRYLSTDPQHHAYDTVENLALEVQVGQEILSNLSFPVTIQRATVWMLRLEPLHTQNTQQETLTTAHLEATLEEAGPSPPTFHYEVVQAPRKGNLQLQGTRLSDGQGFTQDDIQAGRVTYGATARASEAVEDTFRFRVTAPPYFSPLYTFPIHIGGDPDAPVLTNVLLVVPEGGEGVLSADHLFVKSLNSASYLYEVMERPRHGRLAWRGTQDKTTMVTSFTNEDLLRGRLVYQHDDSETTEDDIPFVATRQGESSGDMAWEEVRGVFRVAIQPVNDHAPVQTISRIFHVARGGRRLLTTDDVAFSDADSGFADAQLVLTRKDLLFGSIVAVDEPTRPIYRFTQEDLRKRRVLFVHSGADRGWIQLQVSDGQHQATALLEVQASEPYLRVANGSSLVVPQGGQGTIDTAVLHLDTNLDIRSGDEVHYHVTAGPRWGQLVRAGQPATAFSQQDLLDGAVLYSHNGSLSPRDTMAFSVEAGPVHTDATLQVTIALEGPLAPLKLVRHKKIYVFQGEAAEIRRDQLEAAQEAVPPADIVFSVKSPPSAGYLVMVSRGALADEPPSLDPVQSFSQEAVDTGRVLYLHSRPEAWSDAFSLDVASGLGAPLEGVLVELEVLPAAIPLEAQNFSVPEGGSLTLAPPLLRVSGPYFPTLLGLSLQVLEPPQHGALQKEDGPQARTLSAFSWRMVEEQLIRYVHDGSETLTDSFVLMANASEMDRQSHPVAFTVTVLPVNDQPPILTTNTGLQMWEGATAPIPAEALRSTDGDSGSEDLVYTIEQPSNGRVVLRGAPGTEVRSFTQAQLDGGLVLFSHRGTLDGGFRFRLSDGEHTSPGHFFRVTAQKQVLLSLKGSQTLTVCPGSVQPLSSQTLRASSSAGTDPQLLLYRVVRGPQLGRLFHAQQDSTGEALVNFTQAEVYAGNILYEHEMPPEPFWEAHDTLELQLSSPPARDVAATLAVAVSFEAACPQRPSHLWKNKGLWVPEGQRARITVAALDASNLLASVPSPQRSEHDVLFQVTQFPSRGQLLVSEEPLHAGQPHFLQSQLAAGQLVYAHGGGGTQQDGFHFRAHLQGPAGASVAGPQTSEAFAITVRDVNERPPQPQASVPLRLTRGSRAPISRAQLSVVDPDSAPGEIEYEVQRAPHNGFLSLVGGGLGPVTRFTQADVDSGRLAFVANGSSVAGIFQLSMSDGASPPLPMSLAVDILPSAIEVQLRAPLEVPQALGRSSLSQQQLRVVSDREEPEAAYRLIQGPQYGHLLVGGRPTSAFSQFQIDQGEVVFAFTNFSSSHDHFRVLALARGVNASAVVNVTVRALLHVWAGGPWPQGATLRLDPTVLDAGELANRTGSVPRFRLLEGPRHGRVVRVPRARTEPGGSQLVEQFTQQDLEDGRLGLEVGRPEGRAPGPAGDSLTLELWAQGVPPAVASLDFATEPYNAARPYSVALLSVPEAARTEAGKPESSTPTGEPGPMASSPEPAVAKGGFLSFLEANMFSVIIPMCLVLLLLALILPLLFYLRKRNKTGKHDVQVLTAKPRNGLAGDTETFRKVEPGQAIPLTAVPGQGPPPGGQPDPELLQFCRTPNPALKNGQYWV

B1: scFv SK5 (scFv)
scFv: MAEVQLVESGGGVVRPGGSLRLSCAASGFTFDDYGMSWVRQAPGKGLEWVSGINWNGGSTGYADSVKGRFTISRDNAKNSLYLQMNSLRAEDTAVYYCARGVLSRYFDYWGQGTLVTVSSGGGGSGGGGSGGGGSEIELTQSPATLSLSPGERATLSCRASQSVSSYLAWYQQKPGQAPRLLIYDASNRATGIPARFSGSGSGTDFTLTISSLEPEDFAVYYCQQRSNWPPAFGGGTKVEIKRAA
notes: Fully human scFv from a semi-synthetic phage display library; Tested as soluble scFv in supernatant with a c-Myc tag, detected through mAb 9E10; also called CSPG4-specific human scFv SK5
binding result: binds
